Biological target: T1, Pot1pN (Schizosaccharomyces pombe, UniProt O13988 1-185)
T1 sequence: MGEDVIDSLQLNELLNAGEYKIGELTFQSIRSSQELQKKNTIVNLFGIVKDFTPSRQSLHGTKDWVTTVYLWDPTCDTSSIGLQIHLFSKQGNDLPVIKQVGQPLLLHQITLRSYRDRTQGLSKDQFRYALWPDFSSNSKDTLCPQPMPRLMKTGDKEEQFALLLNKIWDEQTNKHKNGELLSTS
Assay: EMSA

## GGTCACGGTCACAGGUTACA (ssDNA, 5-hydroxymethyl-2'-deoxyuridine at position 16 (written U)) [5hmU at T3]
  Kd: 67 ± 5.6 nM

## GGTCACGGTCACAGGTTACA (ssDNA) [20-mer control (GGTTAC)]
  Kd: 66 ± 5 nM
